Test results: the RNAGym collection of RNA variant scans (doi:10.1093/molbev/msab373)

B1: Azoarcus group I ribozyme (parent)
chain: GUGCCUUGCGCCGGGAAACCACGCAAGGGAUGGUGUCAAAUUCGGCGAAACCUAAGCGCCCGCCCGGGCGUAUGGCAACGCCGAGCCAAGCUUCGGCGCCUGCGCCGAUGAAGGUGUAGAGACUAGACGGCACCCACCUAAGGCAAACGCUAUGGUGAAGGCAUAGUCCAGGGAGUGGCGAAAGUCACACAAACCGG

Variants of: B1
Test: reverse-splicing fitness (ratio to wild type); higher = more active; in vitro selection; Mg2+ level not given
In short: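 An in vitro group I ribozyme library with randomized positions was T7-transcribed and gel-purified. In triplicate, 10 pmol RNA in EPPS pH 7.5 was reacted with 50 pmoles of a 30-nt RNA substrate for 1 h at 37 °C across several added MgCl2 levels (1–48 mM), then stopped with EDTA. Products were reverse transcribed from a substrate-complementary primer, PCR-amplified and sequenced (HiSeq 4000). Fitness is a variant's read proportion after selection over that before, normalised to wild type.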
With C82U A120C A145G C150A C169U U176C the reverse-splicing fitness was 0.0166.
Work on C82U A120C A145G C150A C169U U176G yielded a reverse-splicing fitness of 0.0043.
For C82U A120C A145G C150A C169U U176A, the reverse-splicing fitness was 0.0136.
In the case of C82U A120C A145G C150A C169G U176C, the reverse-splicing fitness is reported as 0.0219.
Variant C82U A120C A145G C150A C169G U176G has a reverse-splicing fitness of 0.00377.
C82U A120C A145G C150A C169G U176A showed a reverse-splicing fitness of 0.0157.
Work on C82U A111U C150U C169G U176A yielded a reverse-splicing fitness of 0.013.
In the case of C82U A111U C150U C169G U176G, the reverse-splicing fitness is reported as 0.00639.
In the case of C82U A111U C150U C169G U176C, the reverse-splicing fitness is reported as 0.0162.
For C82U A111U C150A C169U, the reverse-splicing fitness was 0.0133.
C82U A120C A145C C150A C169G U176G showed a reverse-splicing fitness of 0.00448.
Variant C82U A120C A145C C150A C169G U176A has a reverse-splicing fitness of 0.0162.
C82U A120C A145C C150A C169G U176C showed a reverse-splicing fitness of 0.00772.
Work on C82U A120C A145U C150G U176A yielded a reverse-splicing fitness of 0.00757.
Work on C82U A120C A145U C150G U176C yielded a reverse-splicing fitness of 0.0134.
C82U A120C A145U C150G U176G showed a reverse-splicing fitness of 0.0036.
Variant C82U A120C C150A C169U U176G has a reverse-splicing fitness of 0.00498.
C82U A120C C150A C169U U176C showed a reverse-splicing fitness of 0.0169.
Variant C82U A120C C150A C169U U176A has a reverse-splicing fitness of 0.0175.
With C82U A120C A145U C150G C169G the reverse-splicing fitness was 0.0059.
In the case of C82U A120C A145U C150G C169U, the reverse-splicing fitness is reported as 0.00863.
C82U A120C A145U C150G C169A showed a reverse-splicing fitness of 0.00827.
In the case of C82U A120G A145C C150A U176A, the reverse-splicing fitness is reported as 0.0076.
With C82U A120G A145C C150A U176C the reverse-splicing fitness was 0.0066.
C82U A120G A145C C150A U176G gave a reverse-splicing fitness of 0.00372.
With C82U A120C A145C C169A U176G the reverse-splicing fitness was 0.00299.
With C82U A120C A145C C169A U176A the reverse-splicing fitness was 0.00575.
For C82U A120C A145C C169A U176C, the reverse-splicing fitness was 0.00368.
Work on C82U A120C A145C C150U U176A yielded a reverse-splicing fitness of 0.0173.
With C82U A120C A145C C150U U176C the reverse-splicing fitness was 0.0218.
With C82U A120C A145C C150U U176G the reverse-splicing fitness was 0.00608.
C82U A111U C150A C169G U176G gave a reverse-splicing fitness of 0.00717.
C82U A111U C150A C169G U176C gave a reverse-splicing fitness of 0.0217.
In the case of C82U A120C C169G U176G, the reverse-splicing fitness is reported as 0.00419.
For C82U A120C C169G U176A, the reverse-splicing fitness was 0.0123.
In the case of C82U A120C C169G U176C, the reverse-splicing fitness is reported as 0.0125.
Work on C82U A120C A145U C169G U176G yielded a reverse-splicing fitness of 0.00338.
In the case of C82U A120C A145U C169G U176C, the reverse-splicing fitness is reported as 0.00836.
With C82U A120C A145U C169G U176A the reverse-splicing fitness was 0.00692.
Variant C82U A120C A145G U176G has a reverse-splicing fitness of 0.00954.
For C82U A120C A145G U176C, the reverse-splicing fitness was 0.0715.
For C82U A120C A145G U176A, the reverse-splicing fitness was 0.0488.
For C82U A120C C150U C169G U176A, the reverse-splicing fitness was 0.0126.
Variant C82U A120C C150U C169G U176C has a reverse-splicing fitness of 0.0117.
C82U A120C C150U C169G U176G showed a reverse-splicing fitness of 0.0038.
Variant C82U A120G A145C C150A C169U has a reverse-splicing fitness of 0.00698.
Work on C82U A120G A145C C150A C169A yielded a reverse-splicing fitness of 0.00745.
Work on C82U A120G A145C C150A C169G yielded a reverse-splicing fitness of 0.00758.
In the case of C82U A120C A145U C150U C169G U176A, the reverse-splicing fitness is reported as 0.00914.
For C82U A120C A145U C150U C169G U176G, the reverse-splicing fitness was 0.00405.
Variant C82U A120C A145U C150U C169G U176C has a reverse-splicing fitness of 0.00724.
C82U A111U C169U U176C showed a reverse-splicing fitness of 0.013.
C82U A111U C169U U176G showed a reverse-splicing fitness of 0.00559.
C82U A111U C169U U176A gave a reverse-splicing fitness of 0.0149.
C82U A120C A145G C150U C169G U176G showed a reverse-splicing fitness of 0.00466.
C82U A120C A145G C150U C169G U176A gave a reverse-splicing fitness of 0.0128.
In the case of C82U A120C A145G C150U C169G U176C, the reverse-splicing fitness is reported as 0.0155.
Work on C82U A120C A145C C150G U176G yielded a reverse-splicing fitness of 0.00307.
For C82U A120C A145C C150G U176A, the reverse-splicing fitness was 0.00639.
In the case of C82U A120C A145C C150G U176C, the reverse-splicing fitness is reported as 0.0126.
With C82U A120C A145G C150A C169A U176G the reverse-splicing fitness was 0.00547.
With C82U A120C A145G C150A C169A U176A the reverse-splicing fitness was 0.0175.
C82U A120C A145G C150A C169A U176C showed a reverse-splicing fitness of 0.0203.
C82U A120C A145G C150G C169U U176C gave a reverse-splicing fitness of 0.0111.
Variant C82U A120C A145G C150G C169U U176A has a reverse-splicing fitness of 0.0113.
With C82U A120C A145G C150G C169U U176G the reverse-splicing fitness was 0.00619.
With C82U A120C A145U C150G C169G U176G the reverse-splicing fitness was 0.00365.
C82U A120C A145U C150G C169G U176C gave a reverse-splicing fitness of 0.00491.
For C82U A120C A145U C150G C169G U176A, the reverse-splicing fitness was 0.00652.
Work on C82U A120C A145C C150U C169U U176G yielded a reverse-splicing fitness of 0.00398.
With C82U A120C A145C C150U C169U U176C the reverse-splicing fitness was 0.0109.
C82U A120C A145C C150U C169U U176A gave a reverse-splicing fitness of 0.0137.
C82U A120C A145G C150G U176G gave a reverse-splicing fitness of 0.00605.
For C82U A120C A145G C150G U176A, the reverse-splicing fitness was 0.00924.
For C82U A120C A145G C150G U176C, the reverse-splicing fitness was 0.0157.
With C82U A120C U176A the reverse-splicing fitness was 0.048.
With C82U A120C U176C the reverse-splicing fitness was 0.0725.
For C82U A120C U176G, the reverse-splicing fitness was 0.00931.
C82U A120C C169A U176G showed a reverse-splicing fitness of 0.00409.
For C82U A120C C169A U176C, the reverse-splicing fitness was 0.0121.
C82U A120C C169A U176A gave a reverse-splicing fitness of 0.0143.
C82U A120C A145G C150A U176G gave a reverse-splicing fitness of 0.00716.
Variant C82U A120C A145G C150A U176A has a reverse-splicing fitness of 0.0152.
With C82U A120C A145G C150A U176C the reverse-splicing fitness was 0.0295.
